Measurements as given in US10829756B2, “Discovery of enzymes from the alpha-keto acid decarboxylase family” (Regents of the University of California, priority 2015, dated 2020).
Values joined by “and” are separate entries in the source; they are usually repeats but may differ in a detail not shown here. Equal values may be shown once.

Columns and labels:
[1] = In vitro steady-state kinetics of purified 2-ketoacid decarboxylases (ADH/NADH-coupled), C5 substrate; format: biochemical; conditions: relative to GEO 175
Procedure: (§1) For the native KIVD and KIVD_VLV mutant, 2 ml overnight cultures of XL1B cells were transformed with pQE9 containing N-terminal his-tagged KIVD enzymes and grown in Terrific Broth (BP biomedical, Cat#3046-042) with 50 μg/mL of carbenicillin. (Fisher scientific, Cat# BP2648-5) For the GEOs, 2 ml overnight cultures of BLR cells were transformed with pet29b+ plasmid containing N-terminal his-tagged GEOs, and grown in Terrific Broth with 50 μg/mL of kanamycin. (Fisher scientific, Cat# BP906-5) These cultures were diluted 1:1000 in 500 mL of Terrific Broth with 1 mM MgSO4, 1% glucose, and 50ug/mL of corresponding antibiotics, then grown at 37° C. for 24 hours. […] Protein concentrations were determined using a Synergy H1 spectrophotometer (Biotek) by measuring absorbance at 280 nm using their calculated extinction coefficients with ExPASy ProtParam Tool.^33 All other buffers and salts were purchased from Fisher Scientific unless otherwise specified.
(§2) The kcat and KM values of selective KIVD mutants were measured for the substrates: C3, C5, isoC5, and C8. […] Activity was measured at 0.005 mM to 10 mM substrates. […] Absorbance readings were taken every 1-minute at OD340 at 21° C. for 60 minutes using the Synergy H1. Kinetic parameters (kcat and KM) were determined by fitting initial velocity versus substrate concentration data to the Michaelis-Menten equation.

[2] = In vitro steady-state kinetics of purified 2-ketoacid decarboxylases (ADH/NADH-coupled), C8 substrate; format: biochemical; conditions: relative to GEO 175
Procedure: as §1, §2

[3] = system: synthetic recursive+1 pathway; test: In vivo alcohol production of the synthetic recursive+1 pathway (fermentation, GC-FID); format: cell-based, E. coli
Procedure: The measured specificity and activity for each enzyme was used to select two candidates for further characterization of their ability to modulate alcohol production in vivo. The two enzymes with the highest activity and specificity (FIG. 4), KIVD_VLV and GEO 175, were tested for their ability to reprogram the synthetic recursive+1 pathway to produce long-chain alcohol products in vivo. The alcohol-producing biochemical pathway was adapted from a previous study used to synthesize alcohols of various lengths.^3,4 Starting from glucose, the aforementioned+1 pathway, involving LeuABCD, recursively elongates 2-ketoacids, starting with 2-ketobutyrate, into longer chained 2-ketoacids. These 2-ketoacids are then converted to aldehydes by ketoacid decarboxylases (native KIVD, KIVD_VLV, and GEO 175) and subsequently to alcohols by an alcohol dehydrogenase. Carbon flux through this alcohol synthesizing biochemical pathway is enhanced by overexpressing thrABC, ilvA, LeuABCD, and ADH6 on inducible plasmids transformed into E. coli.^3 The effects of overexpression were furthermore supported and maintained by knocking out the threonine exporter enzyme RhtA and the primary DNA recombination degradation enzyme RecA. The enzyme AdhE was also knocked out, which helps raise long chain alcohol production by eliminating a competing pathway where acetyl-CoA is directly converted to ethanol.^19
Genes were removed from the ATCC 98082 ΔrhtA strain genome using P1 transduction from the Keio collection as previously.^32 The aldehyde-alcohol dehydrogenase gene (adhE) was knocked out to eliminate ethanol production from acetyl-coA. In all strains, recA was knocked out to prevent recombination between the genome and plasmids, thereby stabilizing the transformants. Primers used to target recA for knockout were designed based on the Keio collection (Genobase, ecoli.aist-nara.ac.jp) and ordered from Integrated DNA Technologies.
For n-alcohol production, strains of ST128 were transformed with pZS_thrO, pZAlac_ilvABSleuA, and pZE_LeuA*BCDK*A6 containing various kivd mutations. Fermentation conditions were adapted from those in previous works,^3,4 with the following changes: 20 mL of medium was used, with 100 μg/mL ampicillin, […] kanamycin, and 100 μg/mL spectinomycin added. Cells were grown to an optical density at 600 nm of ˜0.6, followed by induction with 0.1 mM isopropyl-b-D-thiogalactoside (IPTG). After fermentation, cells were centrifuged for 15 minutes at 4000×g and 4° C. The supernatant was split into two fractions for analysis, 5 mL for short chain alcohols (ethanol, 1-propanol, and 1-butanol), and 15 mL for long chain alcohols (1-pentanol, 1-hexanol, 1-heptanol, and 1-octanol). Long chain alcohols were extracted from the 15 mL fraction by 3 mL n-hexane prior to analysis. GC-FID analysis was performed as previously described.^4

[4] = High-throughput pH-dependent colorimetric assay of KIVD mutant libraries in crude cell extracts; format: biochemical; conditions: combinatorial KIVD mutants
Procedure: Partially degenerate oligonucleotides were ordered from Integrated DNA Technologies (San Diego, Calif.) and were used to generate libraries of kivd mutants (with N-terminal his tags) by PCR. Library DNA was purified, inserted into the PCR-amplified pQE9 vector by isothermal Gibson assembly,^31 and transformed into XL1-Blue cells. Individual ampicillin-resistant colonies were picked and grown in 96-well blocks at 37° C. overnight. The number of colonies picked was three times the theoretical library size to ensure approximately 95% probability of all possible mutation combinations occurring. Glycerol was added to 25% (w/v) and libraries were stored at −80° C. until enzyme activity and specificity were assayed. KIVD mutant libraries were screened using a pH-monitored enzyme assay (method explained below) to measure the rate of H^+ consumption resulting from the decarboxylation of 2-ketoacids.
KIVD mutant libraries were grown overnight in culture blocks, diluted 1:100 into fresh media (Luria Broth), grown at 37° C. for 3 hours to OD600 ˜0.6, induced with 0.1 mM IPTG (GoldBio, Saint Louis, Mo.), and grown for 2 additional hours at 37° C. Cells from the well blocks were transferred to 96-well assay plates (Costar, Corning, N.Y.) and cell density was measured at 600 nm. […] Absorbance was measured at 615 nm in a spectrophotometer (TEK Powerwave XS, BioTek, Winooski, Vt.). […]

[5] = forty hours, microaerobic, defined media

Molecule	effect on shorter chain substrates [1]	effect on catalytic efficiency on C8 [2]	drop of overall alcohol production from that obtained with KIVD [3]	heptanol share of alcohol production [3]	hexanol share of alcohol production [3]	major alcohol product [3]	pentanol share of alcohol production [3]	1-Ethanol production [3, 5]	1-Heptanol production [3, 5]	1-Hexanol production [3, 5]	1-Octanol production [3, 5]	1-Pentanol production [3, 5]	1-Propanol production [3, 5]	long chain (≥C5) alcohols produced ([3]; sum of long chain alcohols)	specificity for C8 and activity in colorimetric screening [4]
GEO175 L376T_T240S: engineered mutant of GEO 175 containing two amino acid changes (L376T, T240S), SEQ ID NO:19 (protein, Synthetic mutant of GEO175) MRTVRESALDVLRARGMTTVFGNPGSTELPMLKQFPDDFRYVLGLQEAVVVGMADGFALASGTTGLVNLHTGPGTGNAMGAILNARANRTPMVVTAGQQVRAMLTMEALLTNPQSTLLPQPAVKWAYEPPRAADVAPALARAVQVAETPPQGPVFVSLPMDDFDVVLGEDEDRAAQRAAARTVTHAAAPSAEVVRRLAARLSGARSAVLVAGNDVDASGAWDAVVELAERTGLPVWSAPSEGRVAFPKSHPQYRGMLPPAIAPLSRCLEGHDLVLVIGAPVFCYYPYVPGAHLPENTELVHLTRDADEAARAPVGDAVVADLALTVRALLAELPAREAAAPAARTARAESTAEVDGVLTPLAAMTAIAQGAPANTTWVNESPSNLGQFHDATRIDTPGSFLFTAGGGLGFGLAAAVGAQLGAPDRPVVCVIGDGSTHYAVQALWTAAAYKVPVTFVVLSNQRYAILQWFAQVEGAQGAPGLDIPGLDIAAVATGYGVRAHRATGFGELSKLVRESALQQDGPVLIDVPVTTELPTL	negligible effect	decrease catalytic efficiency on C8													
KIVD_VLV: KIVD triple mutant G402V/M538L/F542V, SEQ ID NO:3 (protein, Synthetic protein KIVD_VLV) MYTVGDYLLDRLHELGIEEIFGVPGDYNLQFLDQIISRKDMKWVGNANELNASYMADGYARTKKAAAFLTTFGVGELSAVNGLAGSYAENLPVVEIVGSPTSKVQNEGKFVHHTLADGDFKHFMKMHEPVTAARTLLTAENATVEIDRVLSALLKERKPVYINLPVDVAAAKAEKPSLPLKKENSTSNTSDQEILNKIQESLKNAKKPIVITGHEIISFGLEKTVSQFISKTKLPITTLNFGKSSVDEALPSFLGIYNGKLSEPNLKEFVESADFILMLGVKLTDSSTGAFTHHLNENKMISLNIDEGKIFNESIQNFDFESLISSLLDLSEIEYKGKYIDKKQEDFVPSNALLSQDRLWQAVENLTQSNETIVAEQGTSFFGASSIFLKPKSHFIGQPLWVSIGYTFPAALGSQIADKESRHLLFIGDGSLQLTVQELGLAIREKINPICFIINNDGYTVEREIHGPNQSYNDIPMWNYSKLPESFGATEERVVSKIVRTENEFVSVMKEAQADPNRMYWIELILAKEDAPKVLKKLGKLVAEQNKS			~10 fold	37%	47%	Hexanol (C6)	16%	no ethanol or propanol production is observed	269 mg/L and 269 ± 23 mg/L	341 mg/L and 341 ± 63 mg/L	not observed	118 mg/L and 118 ± 29 mg/L	no ethanol or propanol production is observed	728 mg/L	highest specificity and activity
